Source: patent US6790630 (NEW ENGLAND BIOLABS, dated 2004)

B1: Wheat germ agglutinin (WGA), biotinylated (other)
chain: QRCGEQGSNMECPNNLCCSQYGYCGMGGDYCGKGCQNGACWTSKRCGSQAGGATCTNNQCCSQYGYCGFGAEYCGAGCQGGPCRADIKCGSQAGGKLCPNNLCCSQWGFCGLGSEFCGGGCQSGACSTDKPCGKDAGGRVCTNNYCCSKWGSCGIGPGYCGAGCQSGGCDG
notes: Lectin
B2: DiT33, native 31-33 kDa glycoprotein of Dirofilaria immitis (other)
chain: SVINRHNKRFAGFSVAGIGGTAGCVVVDNKLFANSFYLRDLTTEEQRELAQYVEDSNQYKEEVKTSLEERRKGWQLARHGEKDAKVLSSLAEKKFPKPPKKPSFCSAGDTTQYYFDGCMVQNNKIYVGRMYVRDLTSDEINQLKTFDAKMTAYQKYLSSSIQQQVDSLFGDKSNLFNLFTDTRHETSSQPSDATTISTTTQAPVEPPETPHFCIAIY
notes: also called doublet of 31 and 33 kDa; D. immitis homolog of Ov33
B3: Artpocarpus integrifolia (jacalin), biotinylated (other)
chain 1: GKAFDDGAFTGIREINLSYNKETAIGDFQVVYDLNGSPYVGQNHKSFITGFTPVKISLDFPSEYIMEVSGYTGNVSGYVVVRSLTFKTNKKTYGPYGVTSGTPFNLPIENGLIVGFKGSIGYWLDYFSMYLSL
chain 2: NEQSGKSQTVIVGSWGAKVS
B4: Ov33, native 31-33 kDa antigen of Onchocerca volvulus adult worms (other)
chain: GVVKRYNKRFAGFNVAGIGGNAGCVVVDNKLFANSFFLRELTTEEQRELAQYIEDSNRYKEEVKESLEERRKGWQLARDGKEDSKVLSALAEKKLPKPPKKPSFCSAGDTTQYYFDGCMVQNDKIYVGRAYVRDLTPDEVTQLKTFDAKMTAYQKYLSSTIQKQVDSLFGEKSNLFNLFADTRTEATSQASDDATAGATTTQAPVEAPEPPHFCVAIY

Tests used:
[1] = target: B2; assay: lectin blot of affinity purified antigen
[2] = target: B4; assay: lectin blot of affinity purified antigen
[3] = target: T1, Concanavilin A (Con-A), biotinylated (UniProt P02866 30-281); assay: lectin blot of affinity purified antigen
T1 construct: Lectin

[4] = target: T2, Erythrina cristagalli lectin (ECL), biotinylated (Erythrina cristagalli, UniProt P83410 1-239); assay: lectin blot of affinity purified antigen
T2 construct: Lectin
T2 sequence: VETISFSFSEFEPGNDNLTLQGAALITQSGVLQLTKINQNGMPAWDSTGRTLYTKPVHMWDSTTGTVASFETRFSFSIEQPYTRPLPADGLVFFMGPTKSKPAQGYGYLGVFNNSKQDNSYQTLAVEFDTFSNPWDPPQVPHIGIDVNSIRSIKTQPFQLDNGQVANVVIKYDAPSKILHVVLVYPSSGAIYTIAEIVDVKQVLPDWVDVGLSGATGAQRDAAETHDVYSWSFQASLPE

[5] = target: T3, Peanut agglutinin (PNA), biotinylated (UniProt P02872 24-259); assay: lectin blot of affinity purified antigen
T3 construct: Lectin
T3 sequence: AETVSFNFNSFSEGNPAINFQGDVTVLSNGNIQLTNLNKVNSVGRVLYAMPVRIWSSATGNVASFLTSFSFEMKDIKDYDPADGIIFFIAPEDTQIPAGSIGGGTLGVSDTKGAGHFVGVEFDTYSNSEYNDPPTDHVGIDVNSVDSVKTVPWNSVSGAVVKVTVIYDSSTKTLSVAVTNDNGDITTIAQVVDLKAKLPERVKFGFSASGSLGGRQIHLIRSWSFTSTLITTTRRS

[6] = target: T4, Phaseolus vulgaris erthroagglutinin (PHA-E), biotinylated (Phaseolus vulgaris, UniProt P05088 22-275); assay: lectin blot of affinity purified antigen
T4 construct: Lectin

[7] = target: T5, Soybean agglutinin (SBA), biotinylated (UniProt P05046 33-285); assay: lectin blot of affinity purified antigen
T5 construct: Lectin

[8] = target: B2; assay: lectin blot, biotinylated lectin 20 µg/ml
[9] = target: B4; assay: lectin blot, biotinylated lectin 20 µg/ml

T5 sequence (P05046 33-285 limits assumed): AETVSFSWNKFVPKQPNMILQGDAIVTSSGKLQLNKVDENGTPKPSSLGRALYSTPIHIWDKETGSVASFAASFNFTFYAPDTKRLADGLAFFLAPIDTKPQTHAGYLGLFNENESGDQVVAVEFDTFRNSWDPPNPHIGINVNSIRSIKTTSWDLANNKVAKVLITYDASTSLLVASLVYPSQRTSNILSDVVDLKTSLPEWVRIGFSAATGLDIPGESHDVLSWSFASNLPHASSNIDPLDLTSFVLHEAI

Row | Binder | binding result [1] | binding result [2] | binding result [3] | binding result [4] | binding result [5] | binding result [6] | binding result [7] | binding result [8] | binding result [9]
1 | B1 | no binding (tested: 20 µg/ml) | no binding (tested: 20 µg/ml) |  |  |  |  |  |  | 
2 | B2 |  |  | no binding (tested: 20 µg/ml) | no binding (tested: 20 µg/ml) | no binding (tested: 20 µg/ml) | no binding (tested: 20 µg/ml) | no binding (tested: 20 µg/ml) |  | 
3 | B3 |  |  |  |  |  |  |  | binds | binds
4 | B4 |  |  | no binding (tested: 20 µg/ml) | no binding (tested: 20 µg/ml) | no binding (tested: 20 µg/ml) | no binding (tested: 20 µg/ml) | no binding (tested: 20 µg/ml) |  | 
